# Measured values from patent US20240270821A1, “GIP/GLP1/GCG TRI-RECEPTOR AGONISTS AND USES THEREOF” (priority 2023, published 2024).
# T1: human GIP receptor (human) (UniProt P48546)
# T1 sequence (looked up): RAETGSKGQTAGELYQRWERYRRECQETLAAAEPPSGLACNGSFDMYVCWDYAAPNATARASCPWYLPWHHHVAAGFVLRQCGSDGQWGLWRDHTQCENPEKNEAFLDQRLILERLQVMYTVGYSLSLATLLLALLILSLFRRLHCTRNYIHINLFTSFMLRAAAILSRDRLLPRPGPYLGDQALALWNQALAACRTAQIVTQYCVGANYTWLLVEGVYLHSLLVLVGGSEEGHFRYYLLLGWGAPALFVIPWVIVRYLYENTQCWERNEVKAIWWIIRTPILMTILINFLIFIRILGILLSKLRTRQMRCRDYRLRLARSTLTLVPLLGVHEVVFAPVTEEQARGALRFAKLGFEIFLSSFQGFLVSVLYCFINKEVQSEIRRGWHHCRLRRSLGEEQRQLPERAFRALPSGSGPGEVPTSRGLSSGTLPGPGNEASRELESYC
# How the values were obtained:
# Assay in all cases: cell-based or functional assay
# [1] = target: human glucagon receptor (human) (UniProt P47871)
# [2] = target: T1, human GIP receptor (human)
# [3] = target: hGLP-1R (Homo sapiens, UniProt P43220)
# Chain of hGLP-1R (P43220 24-463): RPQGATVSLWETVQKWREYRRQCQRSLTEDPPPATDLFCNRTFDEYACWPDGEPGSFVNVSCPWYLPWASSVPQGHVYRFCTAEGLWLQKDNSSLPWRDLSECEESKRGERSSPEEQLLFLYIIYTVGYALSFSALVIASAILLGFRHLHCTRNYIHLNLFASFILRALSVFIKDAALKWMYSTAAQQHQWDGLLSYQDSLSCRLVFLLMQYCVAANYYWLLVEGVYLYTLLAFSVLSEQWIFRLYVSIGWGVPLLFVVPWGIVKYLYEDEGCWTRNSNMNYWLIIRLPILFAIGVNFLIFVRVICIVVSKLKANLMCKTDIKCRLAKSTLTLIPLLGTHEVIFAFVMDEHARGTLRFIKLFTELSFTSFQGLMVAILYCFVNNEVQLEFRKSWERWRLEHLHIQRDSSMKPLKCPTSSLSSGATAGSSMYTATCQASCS
# Chain of human glucagon receptor (human) (P47871 26-477): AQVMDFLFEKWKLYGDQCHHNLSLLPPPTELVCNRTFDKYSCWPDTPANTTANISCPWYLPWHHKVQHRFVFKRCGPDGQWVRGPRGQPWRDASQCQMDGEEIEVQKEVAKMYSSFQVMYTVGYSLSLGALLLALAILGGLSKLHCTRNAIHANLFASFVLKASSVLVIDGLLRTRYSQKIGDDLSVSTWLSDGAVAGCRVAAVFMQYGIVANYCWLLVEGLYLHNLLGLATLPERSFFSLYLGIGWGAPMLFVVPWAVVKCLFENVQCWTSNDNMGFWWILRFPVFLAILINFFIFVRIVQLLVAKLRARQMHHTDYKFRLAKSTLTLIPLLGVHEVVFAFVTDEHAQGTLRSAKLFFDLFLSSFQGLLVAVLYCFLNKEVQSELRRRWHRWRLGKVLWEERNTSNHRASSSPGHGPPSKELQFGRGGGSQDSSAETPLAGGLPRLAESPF
Relative cAMP EC50 [1] [nM],cAMP Rel EC50 (1% HSA) [1] [nM],Relative cAMP EC50 [2] [nM],cAMP Rel EC50 (1% HSA) [2] [nM],Relative cAMP EC50 [3] [nM],cAMP Rel EC50 (1% HSA) [3] [nM],Binder
11.1,1470,0.09,13.9,1.7,272,YXQGTFTSDXSQXLDXKAQXQFIEXLIEXGPSSGEPPPSGSEE (not fully specified; non-natural residues; Lys acylated C18 diacid via γGlu; C-term amide; synthetic construct; SITE 2: note = 2-Aminoisobutyric Acid; SITE 10: note = 3-(4-Pyridyl)-L-alanine; SITE 13: note = alpha-methyl-leucine; SITE 16: note = L-ornithine; SITE 17: note = Lysine is chemically modified through conjugation of the epsilon-amino group of the Lysine side chain with D-Glutami) [Example 1104]
4.72,827,0.0592,6.31,1.75,246,YXQGTFTSDXSQXLDXKAQXAFIEYLIAXGPSSGEPPPSGSEE (non-natural residues; lipidated Lys; C-terminal amide; synthetic construct; SITE 2: note = 2-Aminoisobutyric Acid; SITE 10: note = 3-(4-Pyridyl)-L-alanine; SITE 13: note = alpha-methyl-leucine; SITE 16: note = L-ornithine; SITE 17: note = Lysine is chemically modified through conjugation of the epsilon-amino group of the Lysine side chain with D-Glutami) [Example 1101]
8.42,1140,0.0472,5.47,0.483,63.7,"YXQGTFTSDXSQXLDXKAQXAFIQXLIEXGPSSGEPPPSGGGE (not fully specified; non-natural residues, C18 diacid acylation, C-terminal amide; synthetic construct; SITE 2: note = 2-Aminoisobutyric Acid; SITE 10: note = 3-(4-Pyridyl)-L-alanine; SITE 13: note = alpha-methyl-leucine; SITE 16: note = L-ornithine; SITE 17: note = Lysine is chemically modified through conjugation of the epsilon-amino group of the Lysine side chain with D-Glutami) [Example 1131]"
9.88,869,0.0378,3.18,0.486,52.8,"YXQGTFTSDXSQXLDXKAQXQFIQXLIAXGPSSGEPPPSGGGE (Aib, 4Pal, αMeL, Orn, Me4Pal, αMeY; acylated lysine; amide; synthetic construct; SITE 2: note = 2-Aminoisobutyric Acid; SITE 10: note = 3-(4-Pyridyl)-L-alanine; SITE 13: note = alpha-methyl-leucine; SITE 16: note = L-ornithine; SITE 17: note = Lysine is chemically modified through conjugation of the epsilon-amino group of the Lysine side chain with D-Glutami) [Example 1128]"
6.97,400,0.187,12,10.1,304,"YXQGTFTSDXSQXLDKKAQXAFIEXLIEXGPSSGEPPPSGEEE (non-natural residues (Aib, 4Pal, Me4Pal, αMeL); lipidated Lys; C-amide; synthetic construct; SITE 2: note = 2-Aminoisobutyric Acid; SITE 10: note = 3-(4-Pyridyl)-L-alanine; SITE 13: note = alpha-methyl-leucine; SITE 17: note = Lysine is chemically modified through conjugation of the epsilon-amino group of the Lysine side chain with (gamma-Glu)2-CO-(CH2)16-CO2H; SITE 20:) [Example 1124]"
13.3,1240,0.0441,3.73,0.641,44.5,YXQGTFTSDXSQXLDXKAQXAFIQXLIAXGPSSGEPPPSGGGE (Lys acylated γGlu-C18 diacid; non-natural residues; C-amide; synthetic construct; SITE 2: note = 2-Aminoisobutyric Acid; SITE 10: note = 3-(4-Pyridyl)-L-alanine; SITE 13: note = alpha-methyl-leucine; SITE 16: note = L-ornithine; SITE 17: note = Lysine is chemically modified through conjugation of the epsilon-amino group of the Lysine side chain with D-Glutami) [Example 1130]
5.83,264,0.173,3.95,8.26,243,"YXQGTFTSDXSQXLDKKAQXAFIEXLIEXGPSSGEPPPSGSEE (Aib, 4Pal, Me4Pal, αMeL; lipidated Lys; C-terminal amide; synthetic construct; SITE 2: note = 2-Aminoisobutyric Acid; SITE 10: note = 3-(4-Pyridyl)-L-alanine; SITE 13: note = alpha-methyl-leucine; SITE 17: note = Lysine is chemically modified through conjugation of the epsilon-amino group of the Lysine side chain with (gamma-Glu)2-CO-(CH2)16-CO2H; SITE 20:) [Example 1125]"
